From paper PMC8478808 (Stroke, 2021) come the findings set out here.

The assay addresses T1, recombinant mouse CD200R1 Fc chimera (mouse, UniProt Q9ES57 26-238).
T1 sequence (looked up): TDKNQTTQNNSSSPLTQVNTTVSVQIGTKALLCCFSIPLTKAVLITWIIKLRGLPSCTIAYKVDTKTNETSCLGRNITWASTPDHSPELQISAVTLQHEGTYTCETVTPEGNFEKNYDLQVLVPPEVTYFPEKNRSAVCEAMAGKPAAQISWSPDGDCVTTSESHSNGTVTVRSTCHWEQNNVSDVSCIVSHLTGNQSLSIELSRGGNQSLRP
Description: ELISA. Background: An ELISA detects its analyte on a solid surface through an enzyme-linked reagent.

B1: biotinylated recombinant mouse CD200-Fc Chimera (carrier-free) (Fc fusion, UniProt O54901 31-232, looked up)
chain: QVEVVTQDERKALHTTASLRCSLKTSQEPLIVTWQKKKAVSPENMVTYSKTHGVVIQPAYKDRINVTELGLWNSSITFWNTTLEDEGCYMCLFNTFGSQKVSGTACLTLYVQPIVHLHYNYFEDHLNITCSATARPAPAISWKGTGTGIENSTESHFHSNGTTSVTSILRVKDPKTQVGKEVICQVLYLGNVIDYKQSLDKG
modifications: biotin (biotinylated; site not stated)
As to B1, the binding result is “binds”.
